Test results as given in PMC5913336, “True equilibrium measurement of transcription factor-DNA binding affinities using automated polarization microscopy”.

Key:
Conditions in all cases: protein: recombinant; tags: N-terminal GST; blunt, G:G mismatch at position 6
Bicoid DBD-GST (Bcd) [1] = biological target: T1, Bicoid DBD-GST (Bcd) (UniProt P09081 83-170); test: competitive fluorescence anisotropy (HiP-FA); mean of replicates 45.665, 45.961; HiP-FA: 33 mM phosphate pH 7.0, 90 mM NaCl, 0.01% Tween 20, 0.1 mM DTT, 0.5% agarose; conventional titration and EMSA: 20 mM Tris-acetate pH 7.0, 50 nM (sic) NaCl, 0.01% Tween-20, 0.1 mM DTT
T1 sequence: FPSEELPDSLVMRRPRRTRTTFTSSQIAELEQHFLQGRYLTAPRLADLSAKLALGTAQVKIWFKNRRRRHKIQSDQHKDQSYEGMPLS

Bicoid DBD-GST (Bcd) [2] = biological target: T1, Bicoid DBD-GST (Bcd); test: competitive fluorescence anisotropy (HiP-FA); mean of replicates 8.014, 7.5595; HiP-FA: 33 mM phosphate pH 7.0, 90 mM NaCl, 0.01% Tween 20, 0.1 mM DTT, 0.5% agarose; conventional titration and EMSA: 20 mM Tris-acetate pH 7.0, 50 nM (sic) NaCl, 0.01% Tween-20, 0.1 mM DTT
Bicoid DBD-GST (Bcd) [3] = biological target: T1, Bicoid DBD-GST (Bcd); test: competitive fluorescence anisotropy (HiP-FA); mean of replicates 49.725, 45.8965; HiP-FA: 33 mM phosphate pH 7.0, 90 mM NaCl, 0.01% Tween 20, 0.1 mM DTT, 0.5% agarose; conventional titration and EMSA: 20 mM Tris-acetate pH 7.0, 50 nM (sic) NaCl, 0.01% Tween-20, 0.1 mM DTT
Bicoid DBD-GST (Bcd) [4] = biological target: T1, Bicoid DBD-GST (Bcd); test: competitive fluorescence anisotropy (HiP-FA); mean of replicates 29.656, 29.169; HiP-FA: 33 mM phosphate pH 7.0, 90 mM NaCl, 0.01% Tween 20, 0.1 mM DTT, 0.5% agarose; conventional titration and EMSA: 20 mM Tris-acetate pH 7.0, 50 nM (sic) NaCl, 0.01% Tween-20, 0.1 mM DTT
Bicoid DBD-GST (Bcd) [5] = biological target: T1, Bicoid DBD-GST (Bcd); test: competitive fluorescence anisotropy (HiP-FA); mean of replicates 14.726, 13.4865; HiP-FA: 33 mM phosphate pH 7.0, 90 mM NaCl, 0.01% Tween 20, 0.1 mM DTT, 0.5% agarose; conventional titration and EMSA: 20 mM Tris-acetate pH 7.0, 50 nM (sic) NaCl, 0.01% Tween-20, 0.1 mM DTT
Bicoid DBD-GST (Bcd) [6] = biological target: T1, Bicoid DBD-GST (Bcd); test: competitive fluorescence anisotropy (HiP-FA); mean of replicates 143.671, 148.3805; HiP-FA: 33 mM phosphate pH 7.0, 90 mM NaCl, 0.01% Tween 20, 0.1 mM DTT, 0.5% agarose; conventional titration and EMSA: 20 mM Tris-acetate pH 7.0, 50 nM (sic) NaCl, 0.01% Tween-20, 0.1 mM DTT
Bicoid DBD-GST (Bcd) [7] = biological target: T1, Bicoid DBD-GST (Bcd); test: competitive fluorescence anisotropy (HiP-FA); mean of replicates 3.661, 3.6795; HiP-FA: 33 mM phosphate pH 7.0, 90 mM NaCl, 0.01% Tween 20, 0.1 mM DTT, 0.5% agarose; conventional titration and EMSA: 20 mM Tris-acetate pH 7.0, 50 nM (sic) NaCl, 0.01% Tween-20, 0.1 mM DTT
Bicoid DBD-GST (Bcd) [8] = biological target: T1, Bicoid DBD-GST (Bcd); test: competitive fluorescence anisotropy (HiP-FA); mean of replicates 49.501, 48.184; HiP-FA: 33 mM phosphate pH 7.0, 90 mM NaCl, 0.01% Tween 20, 0.1 mM DTT, 0.5% agarose; conventional titration and EMSA: 20 mM Tris-acetate pH 7.0, 50 nM (sic) NaCl, 0.01% Tween-20, 0.1 mM DTT
Bicoid DBD-GST (Bcd) [9] = biological target: T1, Bicoid DBD-GST (Bcd); test: competitive fluorescence anisotropy (HiP-FA); mean of replicates 4.834, 5.5235; HiP-FA: 33 mM phosphate pH 7.0, 90 mM NaCl, 0.01% Tween 20, 0.1 mM DTT, 0.5% agarose; conventional titration and EMSA: 20 mM Tris-acetate pH 7.0, 50 nM (sic) NaCl, 0.01% Tween-20, 0.1 mM DTT
Bicoid DBD-GST (Bcd) [10] = biological target: T1, Bicoid DBD-GST (Bcd); test: competitive fluorescence anisotropy (HiP-FA); mean of replicates 2.804, 2.596; HiP-FA: 33 mM phosphate pH 7.0, 90 mM NaCl, 0.01% Tween 20, 0.1 mM DTT, 0.5% agarose; conventional titration and EMSA: 20 mM Tris-acetate pH 7.0, 50 nM (sic) NaCl, 0.01% Tween-20, 0.1 mM DTT
Bicoid DBD-GST (Bcd) [11] = biological target: T1, Bicoid DBD-GST (Bcd); test: competitive fluorescence anisotropy (HiP-FA); mean of replicates 92.598, 91.655; HiP-FA: 33 mM phosphate pH 7.0, 90 mM NaCl, 0.01% Tween 20, 0.1 mM DTT, 0.5% agarose; conventional titration and EMSA: 20 mM Tris-acetate pH 7.0, 50 nM (sic) NaCl, 0.01% Tween-20, 0.1 mM DTT
Bicoid DBD-GST (Bcd) [12] = biological target: T1, Bicoid DBD-GST (Bcd); test: competitive fluorescence anisotropy (HiP-FA); mean of replicates 28.134, 26.319; HiP-FA: 33 mM phosphate pH 7.0, 90 mM NaCl, 0.01% Tween 20, 0.1 mM DTT, 0.5% agarose; conventional titration and EMSA: 20 mM Tris-acetate pH 7.0, 50 nM (sic) NaCl, 0.01% Tween-20, 0.1 mM DTT
Bicoid DBD-GST (Bcd) [13] = biological target: T1, Bicoid DBD-GST (Bcd); test: competitive fluorescence anisotropy (HiP-FA); mean of replicates 63.883, 64.716; HiP-FA: 33 mM phosphate pH 7.0, 90 mM NaCl, 0.01% Tween 20, 0.1 mM DTT, 0.5% agarose; conventional titration and EMSA: 20 mM Tris-acetate pH 7.0, 50 nM (sic) NaCl, 0.01% Tween-20, 0.1 mM DTT
Bicoid DBD-GST (Bcd) [14] = biological target: T1, Bicoid DBD-GST (Bcd); test: competitive fluorescence anisotropy (HiP-FA); mean of replicates 133.924, 123.07; HiP-FA: 33 mM phosphate pH 7.0, 90 mM NaCl, 0.01% Tween 20, 0.1 mM DTT, 0.5% agarose; conventional titration and EMSA: 20 mM Tris-acetate pH 7.0, 50 nM (sic) NaCl, 0.01% Tween-20, 0.1 mM DTT
Bicoid DBD-GST (Bcd) [15] = biological target: T1, Bicoid DBD-GST (Bcd); test: competitive fluorescence anisotropy (HiP-FA); mean of replicates 8.833, 9.124; HiP-FA: 33 mM phosphate pH 7.0, 90 mM NaCl, 0.01% Tween 20, 0.1 mM DTT, 0.5% agarose; conventional titration and EMSA: 20 mM Tris-acetate pH 7.0, 50 nM (sic) NaCl, 0.01% Tween-20, 0.1 mM DTT
Bicoid DBD-GST (Bcd) [16] = biological target: T1, Bicoid DBD-GST (Bcd); test: competitive fluorescence anisotropy (HiP-FA); mean of replicates 19.276, 18.3665; HiP-FA: 33 mM phosphate pH 7.0, 90 mM NaCl, 0.01% Tween 20, 0.1 mM DTT, 0.5% agarose; conventional titration and EMSA: 20 mM Tris-acetate pH 7.0, 50 nM (sic) NaCl, 0.01% Tween-20, 0.1 mM DTT
Bicoid DBD-GST (Bcd) [17] = biological target: T1, Bicoid DBD-GST (Bcd); test: competitive fluorescence anisotropy (HiP-FA); mean of replicates 94.126, 94.115; HiP-FA: 33 mM phosphate pH 7.0, 90 mM NaCl, 0.01% Tween 20, 0.1 mM DTT, 0.5% agarose; conventional titration and EMSA: 20 mM Tris-acetate pH 7.0, 50 nM (sic) NaCl, 0.01% Tween-20, 0.1 mM DTT
Bicoid DBD-GST (Bcd) [18] = biological target: T1, Bicoid DBD-GST (Bcd); test: competitive fluorescence anisotropy (HiP-FA); mean of replicates 3.19, 4.8725; HiP-FA: 33 mM phosphate pH 7.0, 90 mM NaCl, 0.01% Tween 20, 0.1 mM DTT, 0.5% agarose; conventional titration and EMSA: 20 mM Tris-acetate pH 7.0, 50 nM (sic) NaCl, 0.01% Tween-20, 0.1 mM DTT
Bicoid DBD-GST (Bcd) [19] = biological target: T1, Bicoid DBD-GST (Bcd); test: competitive fluorescence anisotropy (HiP-FA); mean of replicates 12.922, 12.5195; HiP-FA: 33 mM phosphate pH 7.0, 90 mM NaCl, 0.01% Tween 20, 0.1 mM DTT, 0.5% agarose; conventional titration and EMSA: 20 mM Tris-acetate pH 7.0, 50 nM (sic) NaCl, 0.01% Tween-20, 0.1 mM DTT

B1: Bcd competitor 17 (A6G) (dsDNA)
DNA 1: TCGACGGTAGTCCCTA
DNA 2: TAGGGACTACGGTCGA
Bicoid DBD-GST (Bcd) [1]
  Kd: 45.8 nM

B2: Bcd competitor 26 (C9T) (dsDNA)
DNA 1: TCGACGGTAATCTCTA
DNA 2: TAGAGATTACGGTCGA
Bicoid DBD-GST (Bcd) [2]
  Kd: 7.79 nM

B3: Bcd competitor 24 (C8A) (dsDNA)
DNA 1: TCGACGGTAATACCTA
DNA 2: TAGGTATTACGGTCGA
Bicoid DBD-GST (Bcd) [3]
  Kd: 47.8 nM

B4: Bcd competitor 15 (A5T) (dsDNA)
DNA 1: TCGACGGTTATCCCTA
DNA 2: TAGGGATAACGGTCGA
Bicoid DBD-GST (Bcd) [4]
  Kd: 29.4 nM

B5: Bcd competitor 25 (C9G) (dsDNA)
DNA 1: TCGACGGTAATCGCTA
DNA 2: TAGCGATTACGGTCGA
Bicoid DBD-GST (Bcd) [5]
  Kd: 14.1 nM

B6: Bcd competitor 16 (A6C) (dsDNA)
DNA 1: TCGACGGTACTCCCTA
DNA 2: TAGGGAGTACGGTCGA
Bicoid DBD-GST (Bcd) [6]
  Kd: 146 nM

B7: Bcd competitor 28 (C10G) (dsDNA)
DNA 1: TCGACGGTAATCCGTA
DNA 2: TACGGATTACGGTCGA
Bicoid DBD-GST (Bcd) [7]
  Kd: 3.67 nM

B8: Bcd competitor 21 (T7A) (dsDNA)
DNA 1: TCGACGGTAAACCCTA
DNA 2: TAGGGTTTACGGTCGA
Bicoid DBD-GST (Bcd) [8]
  Kd: 48.8 nM

B9: Bcd competitor 30 (C10A) (dsDNA)
DNA 1: TCGACGGTAATCCATA
DNA 2: TATGGATTACGGTCGA
Bicoid DBD-GST (Bcd) [9]
  Kd: 5.18 nM

B10: Bcd competitor 1 (C1G) (dsDNA)
DNA 1: TCGAGGGTAATCCCTA
DNA 2: TAGGGATTACGCTCGA
Bicoid DBD-GST (Bcd) [10]
  Kd: 2.7 nM

B11: Bcd competitor 22 (C8G) (dsDNA)
DNA 1: TCGACGGTAATGCCTA
DNA 2: TAGGCATTACGGTCGA
Bicoid DBD-GST (Bcd) [11]
  Kd: 92.1 nM

B12: Bcd competitor 23 (C8T) (dsDNA)
DNA 1: TCGACGGTAATTCCTA
DNA 2: TAGGAATTACGGTCGA
Bicoid DBD-GST (Bcd) [12]
  Kd: 27.2 nM

B13: Bcd competitor 13 (A5C) (dsDNA)
DNA 1: TCGACGGTCATCCCTA
DNA 2: TAGGGATGACGGTCGA
Bicoid DBD-GST (Bcd) [13]
  Kd: 64.3 nM

B14: Bcd competitor 18 (A6T) (dsDNA)
DNA 1: TCGACGGTATTCCCTA
DNA 2: TAGGGAATACGGTCGA
Bicoid DBD-GST (Bcd) [14]
  Kd: 128 nM

B15: Bcd competitor 14 (A5G) (dsDNA)
DNA 1: TCGACGGTGATCCCTA
DNA 2: TAGGGATCACGGTCGA
Bicoid DBD-GST (Bcd) [15]
  Kd: 8.98 nM

B16: Bcd competitor 20 (T7G) (dsDNA)
DNA 1: TCGACGGTAAGCCCTA
DNA 2: TAGGGCTTACGGTCGA
Bicoid DBD-GST (Bcd) [16]
  Kd: 18.8 nM

B17: Bcd competitor 19 (T7C) (dsDNA)
DNA 1: TCGACGGTAACCCCTA
DNA 2: TAGGGGTTACGGTCGA
Bicoid DBD-GST (Bcd) [17]
  Kd: 94.1 nM

B18: Bcd competitor 29 (C10T) (dsDNA)
DNA 1: TCGACGGTAATCCTTA
DNA 2: TAAGGATTACGGTCGA
Bicoid DBD-GST (Bcd) [18]
  Kd: 4.03 nM

B19: Bcd competitor 27 (C9A) (dsDNA)
DNA 1: TCGACGGTAATCACTA
DNA 2: TAGTGATTACGGTCGA
Bicoid DBD-GST (Bcd) [19]
  Kd: 12.7 nM
